This note sets out measurements from patent US20220229058A1.

Where no end group is shown, it is not given here.

In test [1] the target is norovirus GII.3 TCH strain virus-like particle (VLP) (norovirus GII.3 TCH strain). The test is described as follows: BLI (BLItz), biotinylated peptide on SA chip, VLP in solution.
For test [2], the target named is norovirus GII.17 Saitama strain virus-like particle (VLP) (norovirus GII.17 Saitama strain). Described as above.

B1: norovirus-binding peptide of SEQ ID NO: 156 (peptide)
peptide: VVGFGRRSLF
modifications: also: biotinylated, residue not given here, spacer sequence added, letters and position not given here
For orientation: Kd means the concentration at which binding is half-saturated. Low readings indicate a tighter complex, high ones a looser complex. Broadly, the koff is the first-order rate constant of dissociation. In general, kon refers to the rate constant with which the complex forms. Low readings indicate slower complex formation, high ones faster complex formation. In test [1], B1 gave a Kd of 1.06 µM, a dissociation rate constant (koff) of 0.0713 s⁻¹ and a kon of 67300 M⁻¹ s⁻¹. In test [2], this molecule displayed a dissociation constant Kd of 234 µM, a dissociation rate constant (koff) of 0.0931 s⁻¹ and a kon of 398 M⁻¹ s⁻¹.

B2: norovirus-binding peptide of SEQ ID NO: 150 (peptide)
peptide: VCVDNDISMS
modifications: also: biotinylated, residue not given here, spacer sequence added, letters and position not given here
In test [1], B2 displayed a dissociation constant Kd of 0.437 µM, a dissociation rate constant (koff) of 0.0118 s⁻¹ and a kon of 27000 M⁻¹ s⁻¹. In test [2], the Kd worked out at 2510 µM and the dissociation rate constant (koff) worked out at 0.255 s⁻¹.

B3: norovirus-binding peptide of SEQ ID NO: 59 (peptide)
peptide: YRRSKSEIFV
modifications: also: biotinylated, residue not given here, spacer sequence added, letters and position not given here
In the case of B3, in test [1], the equilibrium dissociation constant (Kd) came to 0.00887 µM, the koff came to 0.00714 s⁻¹ and the kon was determined as 805000 M⁻¹ s⁻¹. In test [2], the equilibrium dissociation constant (Kd) turned out to be 0.383 µM, the koff is 0.0511 s⁻¹ and the kon was found to be 134000 M⁻¹ s⁻¹.

B4: norovirus-binding peptide of SEQ ID NO: 43 (peptide)
peptide: YVIRNSDRHN
modifications: also: biotinylated, residue not given here, spacer sequence added, letters and position not given here
In test [1], B4 yielded an equilibrium dissociation constant (Kd) of 0.0672 µM, an off-rate constant (koff) of 0.0793 s⁻¹ and an on-rate (kon) of 1.18e+06 M⁻¹ s⁻¹. In test [2], this molecule displayed a Kd of 234 µM, a koff of 0.192 s⁻¹ and an on-rate constant (kon) of 822 M⁻¹ s⁻¹.

B5: norovirus-binding peptide of SEQ ID NO: 143 (peptide)
peptide: YVVASKSNRL
modifications: also: biotinylated, residue not given here, spacer sequence added, letters and position not given here
Turning to B5, in test [1], the Kd amounted to 0.0135 µM, the off-rate (koff) stood at 0.0044 s⁻¹ and the association rate constant (kon) was found to be 325000 M⁻¹ s⁻¹.

B6: norovirus-binding peptide of SEQ ID NO: 52 (peptide)
peptide: KYRATICHTV
modifications: also: biotinylated, residue not given here, spacer sequence added, letters and position not given here
Consider B6, for which, in test [1], the Kd was found to be 0.0138 µM, the off-rate constant (koff) is 0.0103 s⁻¹ and the kon was found to be 747000 M⁻¹ s⁻¹. For the same molecule, in test [2], the dissociation constant (Kd) turned out to be 0.0179 µM, the koff was determined as 0.0232 s⁻¹ and the association rate constant (kon) came out at 1.29e+06 M⁻¹ s⁻¹.

B7: norovirus-binding peptide of SEQ ID NO: 155 (peptide)
peptide: VELFLLTSSC
modifications: also: biotinylated, residue not given here, spacer sequence added, letters and position not given here
As for B7, in test [1], the Kd amounted to 803 µM, the koff was 0.0926 s⁻¹ and the kon stood at 115 M⁻¹ s⁻¹.

B8: norovirus-binding peptide of SEQ ID NO: 154 (peptide)
peptide: ECMGRRWMSS
modifications: also: biotinylated, residue not given here, spacer sequence added, letters and position not given here
In test [1], B8 displayed an equilibrium dissociation constant (Kd) of 0.123 µM, a koff of 0.0173 s⁻¹ and a kon of 141000 M⁻¹ s⁻¹.

B9: norovirus-binding peptide of SEQ ID NO: 131 (peptide)
peptide: NFRVPIRFTH
modifications: also: biotinylated, residue not given here, spacer sequence added, letters and position not given here
On to B9, for which, in test [1], the Kd turned out to be 157 µM, the koff was 0.262 s⁻¹ and the kon is 1660 M⁻¹ s⁻¹.

B10: norovirus-binding peptide of SEQ ID NO: 48 (peptide)
peptide: ICSSWFPSVH
modifications: also: biotinylated, residue not given here, spacer sequence added, letters and position not given here
In test [1], B10 showed a Kd of 0.0303 µM, an off-rate constant (koff) of 0.0246 s⁻¹ and a kon of 810000 M⁻¹ s⁻¹. In test [2], this molecule registered a Kd of 0.0766 µM, a koff of 0.0978 s⁻¹ and a kon of 1.28e+06 M⁻¹ s⁻¹.

B11: norovirus-binding peptide of SEQ ID NO: 163 (peptide)
peptide: SVMVTRSLFG
modifications: also: biotinylated, residue not given here, spacer sequence added, letters and position not given here
With B11, in test [1], the Kd was 0.00766 µM, the koff is 0.00786 s⁻¹ and the on-rate (kon) is 1.03e+06 M⁻¹ s⁻¹. In test [2], the Kd amounted to 0.168 µM, the off-rate constant (koff) was 0.0185 s⁻¹ and the kon turned out to be 110000 M⁻¹ s⁻¹.

B12: norovirus-binding peptide of SEQ ID NO: 172 (peptide)
peptide: GCVGDLYCSA
modifications: cysteine pairing not given here; also: biotinylated, residue not given here, spacer sequence added, letters and position not given here
In test [1], B12 returned a dissociation constant (Kd) of 69.3 µM, an off-rate constant (koff) of 0.0131 s⁻¹ and a kon of 189 M⁻¹ s⁻¹.
